{
  "source": "the supplement of paper PMC10567573",
  "parents": {"B1": {"name": "ANKRD44 (parent)", "chain": "FHCIETLVTTGANVNETDDWGRTA"}},
  "data": [
    {"variants_of": "B1", "experiment": "protein stability index of a GFP-peptide fusion (GPS, HEK-293T) (PSI 1-6); higher = more stable", "details": "c terminus: a fixed tail appended", "values": [
      {"variant": "FHCIETLVTTGANVNETDDWNRTA", "note": "[G21N]", "protein stability index": 1.68},
      {"variant": "FHCIETLVTTGANVNETDDWLRTA", "note": "[G21L]", "protein stability index": 2.12},
      {"variant": "FHCIETLVTTGANVNETDDWVRTA", "note": "[G21V]", "protein stability index": 2.27},
      {"variant": "FHCIETLVTTGANVNETDDWIRTA", "note": "[G21I]", "protein stability index": 2.24},
      {"variant": "FHCIETLVTTGANVNETDDWERTA", "note": "[G21E]", "protein stability index": 2.33},
      {"variant": "FHCIETLVTTGANVNETVDWGRTA", "note": "[D18V]", "protein stability index": 2.43},
      {"variant": "FHCIETLVTTGANVNETFDWGRTA", "note": "[D18F]", "protein stability index": 2.21},
      {"variant": "FHCIETLVTTGANVNETPDWGRTA", "note": "[D18P]", "protein stability index": 1.71},
      {"variant": "FHCIETLVTTGANVNETHDWGRTA", "note": "[D18H]", "protein stability index": 1.54},
      {"variant": "FHCIETLVTTGANVNETMDWGRTA", "note": "[D18M]", "protein stability index": 1.64},
      {"variant": "FHCIETLVTTGANVNETQDWGRTA", "note": "[D18Q]", "protein stability index": 1.69},
      {"variant": "FHCIETLVTTGANVNETSDWGRTA", "note": "[D18S]", "protein stability index": 2.18},
      {"variant": "FHCIETLVTTGANVNETLDWGRTA", "note": "[D18L]", "protein stability index": 2.81},
      {"variant": "FHCIETLVTTGANVNETDMWGRTA", "note": "[D19M]", "protein stability index": 2},
      {"variant": "FHCIETLVTTGANVNETDKWGRTA", "note": "[D19K]", "protein stability index": 2.05},
      {"variant": "FHCIETLVTTGANVNETDSWGRTA", "note": "[D19S]", "protein stability index": 1.72},
      {"variant": "FHCIETLVTTGANVNETDQWGRTA", "note": "[D19Q]", "protein stability index": 2.06},
      {"variant": "FHCIETLVTTGANVNETDLWGRTA", "note": "[D19L]", "protein stability index": 2.09},
      {"variant": "FHCIETLVTTGANVNETDFWGRTA", "note": "[D19F]", "protein stability index": 2.58},
      {"variant": "FHCIETLVTTGANVNETDYWGRTA", "note": "[D19Y]", "protein stability index": 2.43},
      {"variant": "FHCIETLVTTGANVNETDHWGRTA", "note": "[D19H]", "protein stability index": 1.73},
      {"variant": "FHCIEHLVTTGANVNETDDWGRTA", "note": "[T6H]", "protein stability index": 2.52},
      {"variant": "FHCIEGLVTTGANVNETDDWGRTA", "note": "[T6G]", "protein stability index": 1.73},
      {"variant": "FHCIEQLVTTGANVNETDDWGRTA", "note": "[T6Q]", "protein stability index": 2.16},
      {"variant": "FHCIEDLVTTGANVNETDDWGRTA", "note": "[T6D]", "protein stability index": 3.61},
      {"variant": "FHCIELLVTTGANVNETDDWGRTA", "note": "[T6L]", "protein stability index": 3.01},
      {"variant": "FHCIEMLVTTGANVNETDDWGRTA", "note": "[T6M]", "protein stability index": 2.18},
      {"variant": "FHCIEKLVTTGANVNETDDWGRTA", "note": "[T6K]", "protein stability index": 1.93},
      {"variant": "FHCIESLVTTGANVNETDDWGRTA", "note": "[T6S]", "protein stability index": 2.71},
      {"variant": "FHCIENLVTTGANVNETDDWGRTA", "note": "[T6N]", "protein stability index": 2.52},
      {"variant": "FHCIRTLVTTGANVNETDDWGRTA", "note": "[E5R]", "protein stability index": 1.55},
      {"variant": "FHCISTLVTTGANVNETDDWGRTA", "note": "[E5S]", "protein stability index": 1.92},
      {"variant": "FHCICTLVTTGANVNETDDWGRTA", "note": "[E5C]", "protein stability index": 2.02},
      {"variant": "FHCIWTLVTTGANVNETDDWGRTA", "note": "[E5W]", "protein stability index": 2.26},
      {"variant": "FHCIHTLVTTGANVNETDDWGRTA", "note": "[E5H]", "protein stability index": 2.76},
      {"variant": "FHCIATLVTTGANVNETDDWGRTA", "note": "[E5A]", "protein stability index": 2.31},
      {"variant": "FHCINTLVTTGANVNETDDWGRTA", "note": "[E5N]", "protein stability index": 2.03},
      {"variant": "FHCIDTLVTTGANVNETDDWGRTA", "note": "[E5D]", "protein stability index": 2.23},
      {"variant": "FHCIETLVTTGANVNHTDDWGRTA", "note": "[E16H]", "protein stability index": 2.32},
      {"variant": "FHCIETLVTTGANVNKTDDWGRTA", "note": "[E16K]", "protein stability index": 2.5},
      {"variant": "FHCIETLVTTGANVNVTDDWGRTA", "note": "[E16V]", "protein stability index": 1.64},
      {"variant": "FHCIETLVTTGANVNPTDDWGRTA", "note": "[E16P]", "protein stability index": 2},
      {"variant": "FHCIETLVTTGANVNGTDDWGRTA", "note": "[E16G]", "protein stability index": 1.79},
      {"variant": "FHCIETLVTTGANVNQTDDWGRTA", "note": "[E16Q]", "protein stability index": 1.45},
      {"variant": "FHCIETLVTTGANVNYTDDWGRTA", "note": "[E16Y]", "protein stability index": 2.32},
      {"variant": "FHCIETLVTTGANVNNTDDWGRTA", "note": "[E16N]", "protein stability index": 1.97},
      {"variant": "FHCIETLGTTGANVNETDDWGRTA", "note": "[V8G]", "protein stability index": 1.89},
      {"variant": "FHCIETLRTTGANVNETDDWGRTA", "note": "[V8R]", "protein stability index": 2.15},
      {"variant": "FHCIETLLTTGANVNETDDWGRTA", "note": "[V8L]", "protein stability index": 1.4},
      {"variant": "FHCIETLFTTGANVNETDDWGRTA", "note": "[V8F]", "protein stability index": 2.26},
      {"variant": "FHCIETLATTGANVNETDDWGRTA", "note": "[V8A]", "protein stability index": 2.05},
      {"variant": "FHCIETLVTTIANVNETDDWGRTA", "note": "[G11I]", "protein stability index": 2.62},
      {"variant": "FHCIETLVTTQANVNETDDWGRTA", "note": "[G11Q]", "protein stability index": 1.74},
      {"variant": "FHCIETLVTTYANVNETDDWGRTA", "note": "[G11Y]", "protein stability index": 2.39},
      {"variant": "FHCIETLVTTRANVNETDDWGRTA", "note": "[G11R]", "protein stability index": 2.6},
      {"variant": "FHCIETLVTTSANVNETDDWGRTA", "note": "[G11S]", "protein stability index": 1.68},
      {"variant": "FHCIETLVTTAANVNETDDWGRTA", "note": "[G11A]", "protein stability index": 1.79},
      {"variant": "FHCIETLVTTTANVNETDDWGRTA", "note": "[G11T]", "protein stability index": 2.29},
      {"variant": "FHCIETLVTTWANVNETDDWGRTA", "note": "[G11W]", "protein stability index": 2.99},
      {"variant": "FHCIETLVTTNANVNETDDWGRTA", "note": "[G11N]", "protein stability index": 2},
      {"variant": "FHCIETLVTTMANVNETDDWGRTA", "note": "[G11M]", "protein stability index": 1.5},
      {"variant": "FHCIETLVTTVANVNETDDWGRTA", "note": "[G11V]", "protein stability index": 2.09},
      {"variant": "FHCIETLVTTGANVNETDDWGPTA", "note": "[R22P]", "protein stability index": 3.06},
      {"variant": "FHCIETLVTTGANVNETDDWGETA", "note": "[R22E]", "protein stability index": 2.91},
      {"variant": "FHCIETLVTTGANVNETDDWGITA", "note": "[R22I]", "protein stability index": 1.9},
      {"variant": "FHCIETLVTTGANVNETDDWGATA", "note": "[R22A]", "protein stability index": 2.64},
      {"variant": "FHCIETLVTTGANVNETDDWGCTA", "note": "[R22C]", "protein stability index": 1.76},
      {"variant": "FHCIETLVTTGANVLETDDWGRTA", "note": "[N15L]", "protein stability index": 2.21},
      {"variant": "FHCIETLVTTGANVIETDDWGRTA", "note": "[N15I]", "protein stability index": 1.54},
      {"variant": "FHCIETLVTTGANVEETDDWGRTA", "note": "[N15E]", "protein stability index": 2.13},
      {"variant": "FHCIETLVTTGANVYETDDWGRTA", "note": "[N15Y]", "protein stability index": 1.96},
      {"variant": "FHCIETLVTTGANVRETDDWGRTA", "note": "[N15R]", "protein stability index": 2.01},
      {"variant": "FHCIETLVTTGANVWETDDWGRTA", "note": "[N15W]", "protein stability index": 2.14},
      {"variant": "FHCIETLVTTGANVCETDDWGRTA", "note": "[N15C]", "protein stability index": 1.9},
      {"variant": "FHCIETLVTTGANVMETDDWGRTA", "note": "[N15M]", "protein stability index": 1.69},
      {"variant": "FHCIETLVTTGANVVETDDWGRTA", "note": "[N15V]", "protein stability index": 2},
      {"variant": "FHCIETLVTTGANVDETDDWGRTA", "note": "[N15D]", "protein stability index": 2.29},
      {"variant": "FCCIETLVTTGANVNETDDWGRTA", "note": "[H2C]", "protein stability index": 2.05},
      {"variant": "FWCIETLVTTGANVNETDDWGRTA", "note": "[H2W]", "protein stability index": 1.68},
      {"variant": "FMCIETLVTTGANVNETDDWGRTA", "note": "[H2M]", "protein stability index": 2.64},
      {"variant": "FACIETLVTTGANVNETDDWGRTA", "note": "[H2A]", "protein stability index": 2.89},
      {"variant": "FPCIETLVTTGANVNETDDWGRTA", "note": "[H2P]", "protein stability index": 3.77},
      {"variant": "FICIETLVTTGANVNETDDWGRTA", "note": "[H2I]", "protein stability index": 1.62},
      {"variant": "FECIETLVTTGANVNETDDWGRTA", "note": "[H2E]", "protein stability index": 3.9},
      {"variant": "FQCIETLVTTGANVNETDDWGRTA", "note": "[H2Q]", "protein stability index": 3.27},
      {"variant": "FVCIETLVTTGANVNETDDWGRTA", "note": "[H2V]", "protein stability index": 1.74},
      {"variant": "FLCIETLVTTGANVNETDDWGRTA", "note": "[H2L]", "protein stability index": 2.31},
      {"variant": "DHCIETLVTTGANVNETDDWGRTA", "note": "[F1D]", "protein stability index": 4.81},
      {"variant": "YHCIETLVTTGANVNETDDWGRTA", "note": "[F1Y]", "protein stability index": 2.07},
      {"variant": "WHCIETLVTTGANVNETDDWGRTA", "note": "[F1W]", "protein stability index": 3.18},
      {"variant": "SHCIETLVTTGANVNETDDWGRTA", "note": "[F1S]", "protein stability index": 4.04},
      {"variant": "THCIETLVTTGANVNETDDWGRTA", "note": "[F1T]", "protein stability index": 4.25},
      {"variant": "MHCIETLVTTGANVNETDDWGRTA", "note": "[F1M]", "protein stability index": 4.54},
      {"variant": "RHCIETLVTTGANVNETDDWGRTA", "note": "[F1R]", "protein stability index": 3.48}
    ]}
  ]
}
